Experimental data from the RNAGym collection of RNA variant scans (doi:10.7554/elife.80360).

B1: Hairpin Ribozyme (parent)
chain: GUCCUCUUUCACGUGCGCGUGAAAGAGAGAAGUGAACCAGAGAAACACACGUUGUGGUAUAUUACCUGGUA

Variants of: B1
Assay: self-cleavage, relative activity (ratio to wild type); higher = more cleavage; co-transcriptional

Variant	self-cleavage
C18A A71C	1.34
C18A A43U	0.196
C18A A43C	0.107
C18A A47G	0.216
C16U A44G	0.101
C16U A44U	0.154
C16U A44C	0.0379
G17U G19U	0.581
C16A U55C	0.288
G17A U55G	0.161
G17C A22G	0.552
G17A G27A	0.547
G17A G27U	0.324
G17A G25C	0.552
G17A G25A	0.587
G17C U55G	0.196
G17A U67G	0.243
G17A U67A	0.255
C16A G25C	0.499
G17A C37A	0.251
C16G U62C	0.213
G17C A43U	0.0572
G17A C38A	0.169
G17A C38U	0.512

Variant	self-cleavage
G17U C37A	0.26
C16U G32U	0.134
C16U G32C	0.0977
G17U C66G	0.158
C16G A39C	0.374
G17U A71U	0.815
G17A C46G	0.211
G17A C46U	0.143
G17U U67C	0.184
G17U A61G	0.117
G17C C38A	0.199
C16U A45C	0.066
G17C G19A	0.836
G17C G19C	0.68
C16G A49C	0.117
C16A G57U	0.242
G17A G51A	1.06
C16U A71G	1.08
G17U U70C	0.859
G17U U70G	0.739
C16A G21A	0.67
C16A G21C	0.605
C18A A35U	0.734
C18A A35G	1.05

Variant	self-cleavage
C16A C50A	0.361
C16A C50U	0.309
G17A A36G	1.17
G17A A36C	0.607
G17A A36U	0.544
G17C G68A	0.196
C16U	1.04
C16G	0.774
G17U A44C	0.152
G17U A44U	0.0838
G17C U60C	1.08
G17A A23G	0.824
G17A A47C	0.319
G17A A47U	0.132
C16G G29A	0.202
C16G G29U	0.0825
C16U U53A	1.23
C16U U53G	1.05
C16U U53C	0.564
C16A C66A	0.108
C16U U55C	0.251
G17C G32C	0.183
G17U U62A	0.198
G17U U62G	0.122

Variant	self-cleavage
G17U U53G	0.954
G17U U53A	0.841
G17U A45G	0.0728
G17U A45U	0.176
G17A A28C	0.74
G17A A28U	0.808
G17A C18G	1.15
G17C A35U	0.44
C16G C66A	0.197
C16A U60A	0.767
C16A U60C	0.836
C16A U60G	0.451
C16G C50G	0.157
C16G G34C	1.22
G17A U53C	1.01
G17A U53A	1.36
G17A U53G	0.932
C16U A31C	0.165
C16U A30G	0.157
C16G U33C	0.188
G17C A49U	0.263
G17C G40U	0.144
C16U A35C	1.39
C16U A35G	0.937

Variant	self-cleavage
C16G G32A	0.179
G17U A59U	0.274
C16U A64G	0.505
G17A G42U	0.273
G17A G42A	0.222
C16U G57U	0.266
G17A A26C	0.75
G17A A26G	1.01
C16G U58G	0.749
C18A A39G	0.395
C16A G17A	1.02
C16A G17C	0.85
C16G G54C	0.393
C16U G68U	0.329
C16U G68C	0.22
C16U U20C	0.86
C16U U20A	0.817
C16U C66U	0.397
C16U C66G	0.228
C16G G21A	0.515
C16G G21C	0.285
G17U U55A	0.142
C18A A36U	0.593
C18A A36G	0.972

Variant	self-cleavage
C16A U58C	0.937
G17A A31C	0.144
C16U A49G	0.659
C16U U60G	0.634
C16A G40A	0.28
C16A G40C	0.157
C16G A41C	1.12
G17A A45G	0.15
G17A A45U	0.13
C16A U53G	0.877
C16A U53A	0.936
C16A G56C	0.212
G17U G29A	0.105
G17U G29U	0.128
G17C U58A	0.453
C16A C65U	0.242
G17A A71G	1.04
G17A A71U	0.868
C16U U33G	0.148
C16G C38A	0.154
C16G C38G	0.191
C16G C37U	0.346
G17U G69A	0.382
G17A A41G	0.833

Variant	self-cleavage
C18A A41G	0.76
G17A A49C	0.243
G17A A49G	0.62
C16U G29U	0.0547
C16G A35G	0.797
C16A C48A	0.123
C16U G25C	0.63
G17U U20G	0.642
G17U U20C	1.26
C16U G34A	1.26
C16U G34U	0.885
C16G G40U	0.173
C16G G40C	0.143
G17C U67C	0.197
C16G U55G	0.247
G17A U52C	1.11
G17A U52G	0.982
G17A G68C	0.232
G17A G68A	0.301
C18A A64G	0.61
C18A A64U	0.158
C16G A22G	0.828
G17C G29A	0.12
C16U A61U	0.256

Variant	self-cleavage
G17U C38A	0.136
C16G A45G	0.126
C18A A30G	0.115
C16U C38A	0.172
G17U A31C	0.224
G17U A31U	0.104
C16G A28G	0.959
C16G A28U	0.483
C16U G21C	0.749
C16U G21U	0.991
C16G A43U	0.157
C16U U63G	0.195
C16U U63A	0.253
C16U C37G	0.182
G17C C37A	0.287
C16U G42C	0.346
C16U G42U	0.34
C16U G42A	0.225
G17A G69C	0.249
G17C A31G	0.425
C16G U53A	0.855
G17C A23G	0.458
C16G G57A	0.0803
C16U G69A	0.301

Variant	self-cleavage
C16U G69U	0.267
C16G U63G	0.182
C16G U63A	0.15
C16A G19U	0.862
G17C A45G	0.112
G17A G19A	0.962
G17A G19C	0.969
G17A A24G	0.824
C16U A41U	1.4
C16A C38G	0.114
G17U A36G	1.06
G17U A36C	0.587
G17C A64G	0.592
G17C A64U	0.176
G17A A61U	0.208
G17A A61C	0.199
G17U G56U	0.112
G17A A44U	0.183
C16G A59C	0.17
G17C C46A	0.113
G17C C46G	0.074
G17A C50U	0.373
G17C A24U	0.73
G17C A24G	0.88

Variant	self-cleavage
C16A G68A	0.305
C16G A61C	0.2
C16G A23G	0.751
G17A G34A	1.26
G17A G34C	1.3
G17A G34U	0.967
G17U A26C	0.682
C18A A45C	0.173
G17C G25C	0.3
G17U A28C	0.383
G17U A28U	0.51
C16A G69C	0.205
C18A A28U	0.844
C16U C50U	0.366
G17A U70A	0.897
G17A U70C	0.937
G17C A61C	0.078
G17C A61G	0.225
G17U U52C	0.816
G17C C48U	0.148
G17C G56A	0.0625
G17A U60G	0.581
C16A U62A	0.199
C16G G69A	0.225

Variant	self-cleavage
C16G G69U	0.196
G17A A64U	0.151
G17A A64G	0.615
C16U A36G	1.34
C16U G54C	0.411
C16U G54U	0.82
G17U U58A	0.593
G17U U58C	1.13
G17U U58G	0.644
G17C C50G	0.132
G17A A39G	0.319
G17C U62G	0.216
C16U U58G	0.765
G17A A59G	0.205
C16G G56C	0.2
C16A G42C	0.304
C16G U67C	0.155
C16G U67G	0.191
C16G C46A	0.224
C16G C46G	0.183
C16U C18U	0.979
G17U A47U	0.101
G17C G51U	0.679
C16A U20C	0.956

Variant	self-cleavage
C16G A26U	0.293
C16U C46U	0.143
C16U G27A	0.536
C16A U33A	0.17
G17A G29C	0.169
G17C A39U	0.35
G17C A39C	0.528
G17U A24C	0.848
C16G C48U	0.154
G17U G51U	0.798
C18A A31C	0.192
G17C U63G	0.125
G17U A35G	1.02
G17U A35C	1.03
C16G G17U	1.08
G17A A43U	0.105
G17A C66A	0.26
G17A C66U	0.554
G17C U53G	0.41
C16G A24G	0.568
G17A G40U	0.203
G17U A41G	1.08
G17U A41C	0.997
C16U A59U	0.173

Variant	self-cleavage
G17U G32A	0.122
G17U U60G	0.343
G17U A43G	0.0761
G17C G69U	0.196
C16U G56U	0.189
C16U G56C	0.127
G17U G34U	1.29
G17U G34C	1.5
G17A U63A	0.19
C16G U70C	0.829
C16G U70A	0.728
G17C A41C	0.983
C16A C46G	0.143
C16A C46A	0.197
G17A G21A	0.792
C16U G19U	0.661
G17C G42A	0.176
G17U C46U	0.14
C16A G51U	0.861
C16A U52A	0.982
C16A U52C	0.841
C16G A47U	0.06
G17U A22G	0.831
G17U A22C	0.703

Variant	self-cleavage
C16U A26U	0.817
G17A C65U	0.31
G17A C65A	0.86
C16U C65A	1.15
G17U G21C	0.661
G17C U52C	0.778
C16U A24C	1.12
C16G G42C	0.152
G17C U20A	0.736
G17C U20G	0.904
C16A U63G	0.253
C16A U63A	0.132
C16G A44C	0.0851
C16G A44U	0.16
C16A G54C	0.432
C16A G54U	0.595
C18A	1.06
C16G G68U	0.132
C16G G68A	0.243
G17C G57A	0.148
G17C G57U	0.222
G17A U58A	0.709
